From patent CN112010973A (SHANDONG BOAN BIOTECHNOLOGY CO LTD, dated 2020)

Molecular target: T1, 4-1BB蛋白(义翘神州，10041-H08H) (human, UniProt Q07011 24-186)
T1 construct: bought reagent; also called 4-1BB-His蛋白; 4-1BB protein
Assay: SPR, BIAcore X100; antibody captured by anti-human IgG Fc on CM5, 4-1BB protein as analyte, 1:1 model

B1: Urelumab (antibody, human IgG4 S228P, kappa, V domains shown)
VH: QVQLQQWGAGLLKPSETLSLTCAVYGGSFSGYYWSWIRQSPEKGLEWIGEINHGGYVTYNPSLESRVTISVDTSKNQFSLKLSSVTAADTAVYYCARDYGPGNYDWYFDLWGRGTLVTVSS
VL: EIVLTQSPATLSLSPGERATLSCRASQSVSSYLAWYQQKPGQAPRLLIYDASNRATGIPARFSGSGSGTDFTLTISSLEPEDFAVYYCQQRSNWPPALTFGGGTKVEIKR
notes: Second positive control antibody, expressed in HEK293 in the same way as Utomilumab
Kd: 4.87 nM
koff: 0.00251 s⁻¹
kon: 516000 M⁻¹ s⁻¹
